The results in this text go back to the supplement of paper PMC5998384.

Data set [1] relates to HeLa Kyoto. As to the kind of experiment: solubility in G1/S (NP-40 vs SDS abundance) (log2 ratio); higher = more soluble. To be noted: cell cycle stage: G1/S.
For data set [2], the system named is HeLa Kyoto. As to the kind of experiment: melting temperature (median over replicates), in situ; higher = more thermally stable.
Data set [3] deals with HeLa Kyoto. As to the kind of experiment: solubility change mitosis vs G1/S (difference of NP-40 vs SDS log2 ratios) (log2 ratio difference); higher = more soluble in mitosis.
The subject of data set [4] is HeLa Kyoto. Put plainly: thermal stability score vs G1/S (z-score of summed log2 fold changes over temperatures); higher = more thermally stable than in G1/S.
Where [5] appears, read: cell cycle stage: early G1 (4.5 h after nocodazole release).
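Wherever melting temperature (median over replicates), in situ is given: HeLa Kyoto cells synchronized by double thymidine or nocodazole block, proteins quantified by TMT10plex mass spectrometry, three independent biological replicates.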
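Wherever solubility change mitosis vs G1/S (difference of NP-40 vs SDS log2 ratios) is given: synchronized HeLa Kyoto cells (double thymidine block for G1/S, nocodazole release for mitosis), protein amounts in NP-40 versus SDS lysates quantified by mass spectrometry, three biological replicates.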
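Wherever solubility in G1/S (NP-40 vs SDS abundance) is given: HeLa Kyoto cells arrested at G1/S by double thymidine block, proteins quantified by TMT10plex mass spectrometry in mild NP-40 versus SDS extracts, three biological replicates.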
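Wherever thermal stability score vs G1/S (z-score of summed log2 fold changes over temperatures) is given: synchronized HeLa Kyoto cells, proteins quantified by TMT10plex mass spectrometry, three biological replicates, mitosis taken 0.5 h after nocodazole release, G1/S directly after double thymidine block.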

Regarding “MVWDRQTKMEYEWKPDEQGLQQILQLLKESQSPDTTIQRTVQQKLEQLNQYPDFNNYLIFVLTKLKSEDEPTRSLSGLILKNNVKAHFQNFPNGVTDFIKSECLNNIGDSSPLIRATVGILITTIASKGELQNWPDLLPKLCSLLDSEDYNTCEGAFGALQKICEDSAEILDSDVLDRPLNIMIPKFLQFFKHSSPKIRSHAVACVNQFIISRTQALMLHIDSFIENLFALAGDEEPEVRKNVCRALVMLLEVRMDRLLPHMHNIVEYMLQRTQDQDENVALEACEFWLTLAEQPICKDVLVRHLPKLIPVLVNGMKYSDIDIILLKGDVEEDETIPDSEQDIRPRFHRSRTVAQQHDEDGIEEEDDDDDEIDDDDTISDWNLRKCSAAALDVLANVYRDELLPHILPLLKELLFHHEWVVKESGILVLGAIAEGCMQGMIPYLPELIPHLIQCLSDKKALVRSITCWTLSRYAHWVVSQPPDTYLKPLMTELLKRILDSNKRVQEAACSAFATLEEEACTELVPYLAYILDTLVFAFSKYQHKNLLILYDAIGTLADSVGHHLNKPEYIQMLMPPLIQKWNMLKDEDKDLFPLLECLSSVATALQSGFLPYCEPVYQRCVNLVQKTLAQAMLNNAQPDQYEAPDKDFMIVALDLLSGLAEGLGGNIEQLVARSNILTLMYQCMQDKMPEVRQSSFALLGDLTKACFQHVKPCIADFMPILGTNLNPEFISVCNNATWAIGEISIQMGIEMQPYIPMVLHQLVEIINRPNTPKTLLENTAITIGRLGYVCPQEVAPMLQQFIRPWCTSLRNIRDNEEKDSAFRGICTMISVNPSGVIQDFIFFCDAVASWINPKDDLRDMFCKILHGFKNQVGDENWRRFSDQFPLPLKERLAAFYGV [TNPO1]”, in the data set with HeLa Kyoto [1], the “solubility in G1/S (log2)” value was -0.146. The melting temperature in the data set with HeLa Kyoto [2] (cell cycle stage: G1/S) was found to be 50.3 °C; with HeLa Kyoto [2] (cell cycle stage: mitosis), 49.7 °C. The “solubility change mitosis (log2)” value in the data set with HeLa Kyoto [3] was -0.175. Further, the thermal stability score with HeLa Kyoto [4] (setting [5]) is 1.15; in the data set with HeLa Kyoto [4] (cell cycle stage: mitosis), -1.3.
For “MSYTPGVGGDPAQLAQRISSNIQKITQCSVEIQRTLNQLGTPQDSPELRQQLQQKQQYTNQLAKETDKYIKEFGSLPTTPSEQRQRKIQKDRLVAEFTTSLTNFQKVQRQAAEREKEFVARVRASSRVSGSFPEDSSKERNLVSWESQTQPQVQVQDEEITEDDLRLIHERESSIRQLEADIMDINEIFKDLGMMIHEQGDVIDSIEANVENAEVHVQQANQQLSRAADYQRKSRKTLCIIILILVIGVAIISLIIWGLNH [STX7]”, in the data set on HeLa Kyoto [1], the “solubility in G1/S (log2)” value was found to be 0.637. Also, the melting temperature in the data set on HeLa Kyoto [2] (cell cycle stage: G1/S) stood at 54.1 °C; in the data set on HeLa Kyoto [2] (cell cycle stage: mitosis), 55 °C. For the same sequence, the “solubility change mitosis (log2)” value in the data set with HeLa Kyoto [3] was determined as 0.264. In addition, the thermal stability score is -1.45 with HeLa Kyoto [4] (setting [5]) and -2.01 in the data set on HeLa Kyoto [4] (cell cycle stage: mitosis).
“MAITLEEAPWLGWLLVKALMRFAFMVVNNLVAIPSYICYVIILQPLRVLDSKRFWYIEGIMYKWLLGMVASWGWYAGYTVMEWGEDIKAVSKDEAVMLVNHQATGDVCTLMMCLQDKGLVVAQMMWLMDHIFKYTNFGIVSLVHGDFFIRQGRSYRDQQLLLLKKHLENNYRSRDRKWIVLFPEGGFLRKRRETSQAFAKKNNLPFLTNVTLPRSGATKIILNALVAQQKNGSPAGGDAKELDSKSKGLQWIIDTTIAYPKAEPIDIQTWILGYRKPTVTHVHYRIFPIKDVPLETDDLTTWLYQRFVEKEDLLSHFYETGAFPPSKGHKEAVSREMTLSNLWIFLIQSFAFLSGYMWYNIIQYFYHCLF [LPGAT1]”: the “solubility in G1/S (log2)” value in the data set on HeLa Kyoto [1] is -0.142. The melting temperature in the data set with HeLa Kyoto [2] (cell cycle stage: G1/S) was 51.1 °C; with HeLa Kyoto [2] (cell cycle stage: mitosis), 51.3 °C. In addition, the “solubility change mitosis (log2)” value with HeLa Kyoto [3] is -0.152. For the same sequence, the thermal stability score with HeLa Kyoto [4] (setting [5]) was 0.187; with HeLa Kyoto [4] (cell cycle stage: mitosis), -0.757.
Turning to “MALYQRWRCLRLQGLQACRLHTAVVSTPPRWLAERLGLFEELWAAQVKRLASMAQKEPRTIKISLPGGQKIDAVAWNTTPYQLARQISSTLADTAVAAQVNGEPYDLERPLETDSDLRFLTFDSPEGKAVFWHSSTHVLGAAAEQFLGAVLCRGPSTEYGFYHDFFLGKERTIRGSELPVLERICQELTAAARPFRRLEASRDQLRQLFKDNPFKLHLIEEKVTGPTATVYGCGTLVDLCQGPHLRHTGQIGGLKLLSNSSSLWRSSGAPETLQRVSGISFPTTELLRVWEAWREEAELRDHRRIGKEQELFFFHELSPGSCFFLPRGTRVYNALVAFIRAEYAHRGFSEVKTPTLFSTKLWEQSGHWEHYQEDMFAVQPPGSDRPPSSQSDDSTRHITDTLALKPMNCPAHCLMFAHRPRSWRELPLRLADFGALHRAEASGGLGGLTRLRCFQQDDAHIFCTTDQLEAEIQSCLDFLRSVYAVLGFSFRLALSTRPSGFLGDPCLWDQAEQVLKQALKEFGEPWDLNSGDGAFYGPKIDVHLHDALGRPHQCGTIQLDFQLPLRFDLQYKGQAGALERPVLIHRAVLGSVERLLGVLAESCGGKWPLWLSPFQVVVIPVGSEQEEYAKEAQQSLRAAGLVSDLDADSGLTLSRRIRRAQLAHYNFQFVVGQKEQSKRTVNIRTRDNRRLGEWDLPEAVQRLVELQNTRVPNAEEIF [TARS2]”, the “solubility in G1/S (log2)” value in the data set on HeLa Kyoto [1] was determined as 0.0817. For the same sequence, the melting temperature worked out at 51.4 °C in the data set on HeLa Kyoto [2] (cell cycle stage: G1/S) and 50.8 °C with HeLa Kyoto [2] (cell cycle stage: mitosis). In addition, the “solubility change mitosis (log2)” value in the data set with HeLa Kyoto [3] is -0.134. The thermal stability score is -1.35 with HeLa Kyoto [4] (setting [5]) and -0.229 with HeLa Kyoto [4] (cell cycle stage: mitosis).
As for “MAVETLSPDWEFDRVDDGSQKIHAEVQLKNYGKFLEEYTSQLRRIEDALDDSIGDVWDFNLDPIALKLLPYEQSSLLELIKTENKVLNKVITVYAALCCEIKKLKYEAETKFYNGLLFYGEGATDASMVEGDCQIQMGRFISFLQELSCFVTRCYEVVMNVVHQLAALYISNKIAPKIIETTGVHFQTMYEHLGELLTVLLTLDEIIDNHITLKDHWTMYKRLLKSVHHNPSKFGIQEEKLKPFEKFLLKLEGQLLDGMIFQACIEQQFDSLNGGVSVSKNSTFAEEFAHSIRSIFANVEAKLGEPSEIDQRDKYVGICGLFVLHFQIFRTIDKKFYKSLLDICKKVPAITLTANIIWFPDNFLIQKIPAAAKLLDRKSLQAIKIHRDTFLQQKAQSLTKDVQSYYVFVSSWMMKMESILSKEQRMDKFAEDLTNRCNVFIQGFLYAYSISTIIKTTMNLYMSMQKPMTKTSVKALCRLVELLKAIEHMFYRRSMVVADSVSHITQHLQHQALHSISVAKKRVISDKKYSEQRLDVLSALVLAENTLNGPSTKQRRLIVSLALSVGTQMKTFKDEELFPLQVVMKKLDLISELRERVQTQCDCCFLYWHRAVFPIYLDDVYENAVDAARLHYMFSALRDCVPAMMHARHLESYEILLDCYDKEIMEILNEHLLDKLCKEIEKDLRLSVHTHLKLDDRNPFKVGMKDLALFFSLNPIRFFNRFIDIRAYVTHYLDKTFYNLTTVALHDWATYSEMRNLATQRYGLVMTEAHLPSQTLEQGLDVLEIMRNIHIFVSRYLYNLNNQIFIERTSNNKHLNTINIRHIANSIRTHGTGIMNTTVNFTYQFLKKKFYIFSQFMYDEHIKSRLIKDIRFFREIKDQNDHKYPFDRAEKFNRGIRKLGVTPEGQSYLDQFRQLISQIGNAMGYVRMIRSGGLHCSSNAIRFVPDLEDIVNFEELVKEEGLAEETLKAARHLDSVLSDHTRNSAEGTEYFKMLVDVFAPEFRRPKNIHLRNFYIIVPPLTLNFVEHSISCKEKLNKKNKIGAAFTDDGFAMGVAYILKLLDQYREFDSLHWFQSVREKYLKEIRAVAKQQNVQSASQDEKLLQTMNLTQKRLDVYLQEFELLYFSLSSARIFFRADKTAAEENQEKKEKEEETKTSNGDLSDSTVSADPVVK [KIAA1033]”, the “solubility in G1/S (log2)” value with HeLa Kyoto [1] was -0.393. The melting temperature with HeLa Kyoto [2] (cell cycle stage: G1/S) and with HeLa Kyoto [2] (cell cycle stage: mitosis) was 49.7 °C each time. Besides, the “solubility change mitosis (log2)” value with HeLa Kyoto [3] was -0.0953. Besides, the thermal stability score in the data set with HeLa Kyoto [4] (setting [5]) worked out at 0.475; in the data set on HeLa Kyoto [4] (cell cycle stage: mitosis) it was 0.963.
